Test results as given in article doi:10.1101/2022.02.17.480908.

Target: urea pre-unfolded MLucV (stable small aggregates) (firefly)
Experiment: SEC-RALS

stoichiometry N: 12
Substance: urea pre-unfolded MLucV (stable small aggregates)
